Experimental data taken from patent US20250042994A1 (HAINAN SIMCERE ZAIMING PHARMACEUTICAL, published 2025).
Residue numbers refer to the chain shown, from its start. One block for each binder: values may come before it.

Columns and labels:
[1] = target: T1, human CD19 exon1-3-His tag protein (human, UniProt P15391 20-186, limits assumed); test: ELISA on coated human CD19 exon 1-3-His
T1 construct: membrane-distal part of the extracellular region, made in HEK293E cells; not shown: His tag
T1 sequence (looked up): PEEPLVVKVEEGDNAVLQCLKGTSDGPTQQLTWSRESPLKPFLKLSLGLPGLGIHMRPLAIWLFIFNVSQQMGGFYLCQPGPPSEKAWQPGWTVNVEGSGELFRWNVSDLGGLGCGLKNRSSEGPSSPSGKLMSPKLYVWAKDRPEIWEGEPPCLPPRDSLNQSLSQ

Human CD19-his protein = target: T2, Human CD19-his protein (human, UniProt P15391 20-291); test: SPR Biacore, Ab captured on Protein A, CD19-His analyte
T2 construct: bought protein; also called recombinant human CD19-His; CD19 full-length protein; not shown: His tag
T2 sequence (looked up): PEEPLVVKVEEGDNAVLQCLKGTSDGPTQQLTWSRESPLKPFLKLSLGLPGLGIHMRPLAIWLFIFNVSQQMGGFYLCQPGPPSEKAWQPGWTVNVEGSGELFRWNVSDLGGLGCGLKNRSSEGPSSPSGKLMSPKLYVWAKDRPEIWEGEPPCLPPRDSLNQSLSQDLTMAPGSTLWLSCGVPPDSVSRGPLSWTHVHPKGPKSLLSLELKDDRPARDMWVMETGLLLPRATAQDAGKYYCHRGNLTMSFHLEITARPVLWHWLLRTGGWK
Method in brief: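 Antibodies were captured on a Protein A chip at 25 °C in HBS-EP+. Human CD19-His was injected for 240 s at 30 μl/min at 5 concentrations from 200 nM (1:1 dilutions), with dissociation up to 600 s. Data were double-referenced and fitted to a Langmuir 1:1 model for apparent KD.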

binding result [1]: no binding (tested: 100 nM)
Kd (Human CD19-his protein): 0.000926 µM
koff (Human CD19-his protein): 0.00017 s⁻¹
kon (Human CD19-his protein): 184000 M⁻¹ s⁻¹
B1: F4.78.1 (antibody, human IgG1, V domains shown)
VH: QVQIQQSGAELARPGASVKLSCKASGYTFTNYWMQWIKQRPGQGLEWIGAIYPGDGDTRYTQKFKGKATLTADKSSSTAYMQLSSLASEDSAVYYCAREEVWSPYGMDYWGQGTSVTVSS
VL: QIVLTQSPAIMSASPGEKVTITCSASSSVSYMGWFQQKPGTSPKLWIYSTSNLASGVPARFSGSGSGTSYSLTISRMEAEDAATYYCQQRSIYPLTFGAGTKLELK
notes: human-murine chimeric antibody, human IgG1 constant

binding result [1]: no binding (tested: 100 nM)
Kd (Human CD19-his protein): 0.0139 µM
koff (Human CD19-his protein): 0.002 s⁻¹
kon (Human CD19-his protein): 143000 M⁻¹ s⁻¹
B2: F4.58.6 (antibody, human IgG1, V domains shown)
VH: QVQLQQPGAELVKPGASVKLSCKASGYTFTSYWMHWVKQRPGQGLEWIGEIDPSDSYSNYNQKFKGKATLTVDKSSSTAYMQLSSLTSEDSAVYYCARSNYGSSYGYFDVWGAGTTVTVSS
VL: QIVLTQSPAIMSASPGEKVTMTCSVSSSLSYMHWYQQKPGTSPKRWIYDTSKLASGVPARFSGSGSGTSYSLTISSMEAEDAATYYCHQRSSYPTFGGGTKLEIK
notes: as for B1

binding result [1]: no binding (tested: 100 nM)
Kd (Human CD19-his protein): 0.0176 µM
koff (Human CD19-his protein): 0.00128 s⁻¹
kon (Human CD19-his protein): 73000 M⁻¹ s⁻¹
B3: F4.49.11 (antibody, human IgG1, V domains shown)
VH: DVQLRASGPGLVKPSQSLSLTCSVTGYSITSGYYWNWIRQFPGNKLEWMGCISYDGTNNYNPSLKNRISFTRDTSKNQFFLNLNSVTTEDSATYYCARRVYYRYDGVVDYWGQGTSVTVSS
VL: ENVLTQSPAIMSASPGEKVTMTCSASSSVSYIHWYQQKSSTAPKLWIYDTSKLASGVPGRFSGSRSRNSYSLTISSMEAEDVATYYCFQGSGYPLTFGSGTKLEIK
notes: as for B1

binding result [1]: no binding (tested: 100 nM)
Kd (Human CD19-his protein): 0.0134 µM
koff (Human CD19-his protein): 0.00239 s⁻¹
kon (Human CD19-his protein): 179000 M⁻¹ s⁻¹
B4: F4.41.1 (antibody, human IgG1, V domains shown)
VH: QVQLQQSGAELVRPGTSVKVSCKASGYAFTNYLIEWVKQRPGQGLEWIGVINPGSGDTLYNEKFKGKATLTADKSSTTAYMQLSGLTSDVSAIYFCARSPPITTIVADYFDYWGQGTTLTVSS
VL: DIQMTQTTSSLSASLGDRVTISCRASQDISNYLNWYQQKPDGTVKLLIYYTSRLHSGVPSRFSGSGSGADYSLTISNLEQEDIATYFCQQGKTLPYTFGGGTKLEIK
notes: as for B1

binding result [1]: no binding (tested: 100 nM)
Kd (Human CD19-his protein): 0.0227 µM
koff (Human CD19-his protein): 0.000774 s⁻¹
kon (Human CD19-his protein): 34100 M⁻¹ s⁻¹
B5: F4.82.11 (antibody, human IgG1, V domains shown)
VH: QVTLKESGPGILQASQTLSLTCSFSGFSLSTFGIGVGWVRQPSGKGLEWLAHIWWNDNKFFNTTLKNRLTLSKDPSNNQVFLKIASVDTADTATYYCARSRSALITTGLYAMDYWGQGTSVTVSS
VL: B4 VL with T8P, A25S, L33V, L46V, Y49N, A69T, T85S, K92F
notes: as for B1

binding result [1]: no binding (tested: 100 nM)
Kd (Human CD19-his protein): 0.000487 µM
koff (Human CD19-his protein): 0.000129 s⁻¹
kon (Human CD19-his protein): 264000 M⁻¹ s⁻¹
B6: F4.48.12 (antibody, human IgG1, V domains shown)
VH: QMQLKESGPGLVAPSQSLSITCTVSGFSLTDYGVSWIRQPPGKGLEWLGVIWGSGSTFYNSALTSRLSISKDNSKSQVFLKMNSLQTADTAMYFCAKHHYYGGSFAMDYWGQGTSVTVSS
VL: DIQMTQASSSLSASLGDRVTISCKTSQDISNYLNWYQQKPDGTFKLLIHYTSRLHSGVPSRFSGSGSGSDYSLTISNLEREDIATYFCQQGNSLPYTFGGGTKLEMK
notes: as for B1

binding result [1]: no binding (tested: 100 nM)
Kd (Human CD19-his protein): 0.00911 µM
koff (Human CD19-his protein): 0.00327 s⁻¹
kon (Human CD19-his protein): 359000 M⁻¹ s⁻¹
B7: F4.37.6 (antibody, human IgG1, V domains shown)
VH: QVQLQQSGAELARPGASVKLSCKASGYTFTSFWMQWLKQRPGQGLEWIGTIYPGDGDTRYTQKFKGKATLTADKSSNTAYMQLSSLASEDSAVYYCARGALSNYGGFAYWGQGTLVTVSA
VL: NIVLTQSPASLAVSLGQRATISCRASESVDSYGHSFMHWYQQKPGQPPKLLIYLASNLESGVPARFSGSGSRTDFTLTIDPVEADDAATYYCQQNNEDPWTFGGGTKLEIK
notes: as for B1
